In assay [1] the target is CD70 on cells (CHO-CD70, JVM-3, U266, Raji, THP-1, T cells) (human) (UniProt P32970). Put plainly: on U266 cells.
The target is the same in assay [2]. Put plainly: on Raji cells.
For assay [3] the target is unchanged. Put plainly: on JVM-3 cells.

Cell binding data for one substance are collected here from patent US20240252641A1.

Sequence of CD70 on cells (CHO-CD70, JVM-3, U266, Raji, THP-1, T cells) (human) (P32970 whole entry): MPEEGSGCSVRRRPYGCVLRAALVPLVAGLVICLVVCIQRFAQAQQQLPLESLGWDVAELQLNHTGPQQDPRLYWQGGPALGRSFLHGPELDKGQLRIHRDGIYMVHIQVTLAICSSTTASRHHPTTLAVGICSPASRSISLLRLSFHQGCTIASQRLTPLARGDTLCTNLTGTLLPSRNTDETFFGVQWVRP

In the case of “1F6 (clone ID in Table 3, alloy mouse hybridoma) (antibody)”, the cell binding was found to be 239000 in assay [1], 68900 in assay [2] and 225000 in assay [3].
